These results are taken from paper PMC10940770, “Loss of function and reduced levels of sphingolipid desaturase DEGS1 variants are both relevant in disease mechanism” (Journal of Lipid Research, 2024).

Substrate in data set [1]: CCCCCCCCCCCCCCC[C@@H](O)[C@H](CO)NC(=O)CCCCCCCCCCCC
Briefly: LC-MS/MS of C13-Cerd7 formed; Hanes-Woolf plot. The class given is biochemical, Homo sapiens. Particulars: homogenate of transfected KO-DES-HEK (80 μg, 30 min) plus 100 μg KO-DES-HEK homogenate, 0.2 M Tris/HCl pH 7, 0.2% Triton X-100, 1 mM NADPH, 37°C, deuterated substrate. The source says:
LC-MS/MS of C13-Cerd7 formed; Hanes-Woolf plot on DEGS2

Substrate in data set [2]: CCCCCCCCCCCCCCC[C@@H](O)[C@H](CO)NC(=O)CCCCCCCCCCCC
Briefly: LC-MS/MS of C13-Cerd7 formed; Hanes-Woolf plot. The class given is biochemical, Homo sapiens. The conditions noted are these: 0.2 M Tris/HCl pH 7, 0.2% Triton X-100, 1 mM NADPH, 37°C, deuterated substrate. An excerpt:
LC-MS/MS of C13-Cerd7 formed; Hanes-Woolf plot on DEGS1

Setting [3] is: homogenate of transfected KO-DES-HEK (80 μg, 30 min) plus 100 μg KO-DES-HEK homogenate.

Numbering of substitutions follows the chain as printed. Names and notes keep the numbering of the source.

As usually defined, the Km is the concentration of substrate that gives half-maximal velocity.

B1: DEGS2 (Homo sapiens) (protein)
chain: GNSASRSDFEWVYTDQPHTQRRKEILAKYPAIKALMRPDPRLKWAVLVLVLVQMLACWLVRGLAWRWLLFWAYAFGGCVNHSLTLAIHDISHNAAFGTGRAARNRWLAVFANLPVGVPYAASFKKYHVDHHRYLGGDGLDVDVPTRLEGWFFCTPARKLLWLVLQPFFYSLRPLCVHPKAVTRMEVLNTLVQLAADLAIFALWGLKPVVYLLASSFLGLGLHPISGHFVAEHYMFLKGHETYSYYGPLNWITFNVGYHVEHHDFPSIPGYNLPLVRKIAPEYYDHLPQHHSWVKVLWDFVFEDSLGPYARVKRVYRLAKDGL
notes: full-length cDNA (from colon mucosa RNA) in pcDNA3, transfected into DEGS1-knockout HEK-293T (KO-DES-HEK); cell homogenate with Triton X-100
Regarding B1, the Km in data set [1] amounted to 15.31 µM.

B2: DEGS1 (Homo sapiens) (protein)
chain: GSRVSREDFEWVYTDQPHADRRREILAKYPEIKSLMKPDPNLIWIIIMMVLTQLGAFYIVKDLDWKWVIFGAYAFGSCINHSMTLAIHEIAHNAAFGNCKAMWNRWFGMFANLPIGIPYSISFKRYHMDHHRYLGADGVDVDIPTDFEGWFFCTAFRKFIWVILQPLFYAFRPLFINPKPITYLEVINTVAQVTFDILIYYFLGIKSLVYMLAASLLGLGLHPISGHFIAEHYMFLKGHETYSYYGPLNLLTFNVGYHNEHHDFPNIPGKSLPLVRKIAAEYYDNLPHYNSWIKVLYDFVMDDTISPYSRMKRHQKGEMVLE
notes: full-length cDNA (from Hep3B RNA) in pcDNA3, untagged, transfected into DEGS1-knockout HEK-293T (KO-DES-HEK); cell homogenate with Triton X-100
In the case of B2, in data set [2] (homogenate of transfected KO-DES-HEK (40 μg, 10 min) plus 100 μg KO-DES-HEK homogenate), the Km turned out to be 2.41 µM.

B3: DEGS1 (Homo sapiens; N189D) (protein)
chain: B2 chain with N188D
notes: as for B2
In the case of B3, the Km in data set [2] (setting [3]) stood at 2.75 µM.

B4: DEGS1 (Homo sapiens; A280V) (protein)
chain: B2 chain with A279V
notes: as for B2
For B4, the Km in data set [2] (setting [3]) worked out at 3.29 µM.

B5: DEGS1 (Homo sapiens; N255S) (protein)
chain: B2 chain with N254S
notes: as for B2
As for B5, in data set [2] (setting [3]), the Km was found to be 4.34 µM.

B6: DEGS1 (Homo sapiens; L175Q) (protein)
chain: B2 chain with L174Q
notes: as for B2
Consider B6, for which, in data set [2] (setting [3]), the Km stood at 5.99 µM.
